Source: publication PMC10662374, “Structures of the interleukin 11 signalling complex reveal gp130 dynamics and the inhibitory mechanism of a cytokine variant” (Nature Communications, 2023)
Several values for one entry are separate records, joined by “and”; a condition that tells them apart may be missing. Equal values may be shown once. Read-outs that look alike come from different tables or passages of the source. Each block holds one molecule with its values, some of them ahead of it.

Tests used:
[1] = target: IL-11_(Δ10/PAIDY)/IL-11Rα_(D1-D3) binary complex (human) (UniProt P20809); experiment: ITC; gp130 in the syringe titrated against the cytokine/IL-11Rα_(D1-D3) complex formed in the cell, 288 K, TBS pH 8.5, 1:1 interaction model, n = 3
[2] = target: IL-11_(Δ10/W147A)/IL-11Rα_(D1-D3) binary complex (human) (UniProt P20809); experiment: as above
[3] = target: T1, IL-11Δ10/IL-11Rα_(D1-D3) binary complex (human, UniProt P20809 32-199; Q14626 23-319); experiment: as above
T1 construct: IL-11, human, IL-11Δ10, as m1; numbers count on: the mature protein; IL-11Rα, human, D1-D3, as m8; m1 with m8; also called IL-11Rα_(D1-D3)/IL-11Δ10 binary complex; binary IL-11/IL-11Rα complex; source: formed from the purified proteins (IL-11Δ10 from E. coli, IL-11Rα_(D1-D3) from Sf21); in ITC by titrating the cytokine into IL-11Rα; not shown: His6, N-terminal, cleaved; His8, N-terminal, cleaved; …
T1 sequence 1: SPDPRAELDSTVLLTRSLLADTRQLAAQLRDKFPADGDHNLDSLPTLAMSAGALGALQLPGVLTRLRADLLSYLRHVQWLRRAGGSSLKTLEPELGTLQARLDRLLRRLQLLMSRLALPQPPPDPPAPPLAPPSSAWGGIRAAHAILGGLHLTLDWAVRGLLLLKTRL
T1 sequence 2: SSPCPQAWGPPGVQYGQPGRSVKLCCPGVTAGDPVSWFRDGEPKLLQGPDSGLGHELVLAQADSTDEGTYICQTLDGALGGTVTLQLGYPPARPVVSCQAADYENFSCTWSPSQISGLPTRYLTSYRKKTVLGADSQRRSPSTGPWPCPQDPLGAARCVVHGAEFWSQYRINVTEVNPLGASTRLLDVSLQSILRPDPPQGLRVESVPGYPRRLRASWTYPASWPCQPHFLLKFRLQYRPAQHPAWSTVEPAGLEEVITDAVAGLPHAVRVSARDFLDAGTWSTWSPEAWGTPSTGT

IL-11Ralpha D1-D3 = target: T2, IL-11Ralpha D1-D3 (Homo sapiens, UniProt Q14626); experiment: ITC
T2 chain: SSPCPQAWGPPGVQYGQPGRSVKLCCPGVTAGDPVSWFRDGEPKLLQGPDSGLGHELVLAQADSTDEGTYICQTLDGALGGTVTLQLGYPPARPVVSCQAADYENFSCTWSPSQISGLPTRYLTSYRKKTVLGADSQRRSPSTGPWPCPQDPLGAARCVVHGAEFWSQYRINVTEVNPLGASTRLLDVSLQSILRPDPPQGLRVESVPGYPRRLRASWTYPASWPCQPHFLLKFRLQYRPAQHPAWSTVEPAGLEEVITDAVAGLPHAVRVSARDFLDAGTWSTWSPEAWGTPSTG

IL-11Rα_(D1-D3) [4] = target: T3, IL-11Rα_(D1-D3) (human, UniProt Q14626 23-319, N-linked glycans (N105, N172 seen in the structures)); experiment: ITC; cytokine in the syringe (10-fold above IL-11Rα), IL-11Rα_(D1-D3) in the cell at 10 μM, TBS pH 8.5, 1:1 interaction model, n = 3; details: both partners purified
T3 construct: Secreted with a honeybee-melittin signal peptide; also called C-terminally truncated form of IL-11Rα; not shown: His8, N-terminal, cleaved
T3 sequence: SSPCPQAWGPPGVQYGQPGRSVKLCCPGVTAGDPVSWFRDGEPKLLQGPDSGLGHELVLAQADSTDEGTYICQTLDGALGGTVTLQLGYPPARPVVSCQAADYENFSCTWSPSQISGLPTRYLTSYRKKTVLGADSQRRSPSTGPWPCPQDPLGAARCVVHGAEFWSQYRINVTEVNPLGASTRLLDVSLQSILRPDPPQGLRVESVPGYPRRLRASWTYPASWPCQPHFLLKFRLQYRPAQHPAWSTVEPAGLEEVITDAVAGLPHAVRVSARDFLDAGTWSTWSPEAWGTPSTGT

IL-11Rα D1-D3 = target: T4, IL-11Rα D1-D3 (human, UniProt Q14626 23-319); experiment: SPR; biotinylated IL-11Δ10-avi or IL-11Δ10/Mutein-avi immobilised on a streptavidin chip (SAHC 1500M); IL-11Rα D1-D3 flowed over, nine-point two-fold dilution series from 500 nM; Biacore T200, 25 °C, TBS pH 8.5 + 0.05% Tween, 30 uL/min; 1:1 kinetic model; two replicate dilution series (run 1, run 2); details: both partners purified
T4 construct: interleukin 11 receptor subunit alpha, human, C-terminally truncated form with the structured extracellular domains D1-D3; Secreted with a honeybee-melittin signal peptide; tag removed with TEV protease; N-glycosylated; also called IL11RA; RA; not shown: His8, N-terminal, cleaved
T4 sequence: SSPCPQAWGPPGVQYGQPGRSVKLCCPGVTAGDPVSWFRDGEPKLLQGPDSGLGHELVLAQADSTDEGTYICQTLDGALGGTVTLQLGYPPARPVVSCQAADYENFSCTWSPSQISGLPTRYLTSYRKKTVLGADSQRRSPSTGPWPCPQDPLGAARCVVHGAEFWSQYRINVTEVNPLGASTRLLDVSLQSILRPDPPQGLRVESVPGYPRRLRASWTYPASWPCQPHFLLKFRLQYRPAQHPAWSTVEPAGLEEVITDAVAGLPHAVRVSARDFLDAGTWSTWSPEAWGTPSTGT

IL-11Rα_(D1-D3) [5] = target: T3, IL-11Rα_(D1-D3); experiment: SPR; Biacore T200, 25 °C, TBS pH 8.5 + 0.05% Tween, 30 μL/min; biotinylated IL-11-avi on a streptavidin chip, IL-11Rα_(D1-D3) flowed over (two-fold dilutions from 500 nM), 1:1 kinetic model, n = 2; details: both partners purified

Kd [1]: 60 nM
Kd [2]: 130 nM
Kd [3]: 380 nM
dH [3]: 6.45 kcal/mol
Molecule: gp130_(D2-D3) (receptor)

dH ([3]; both partners purified): -4.78 kcal/mol
B1: gp130EC (receptor, human, UniProt P40189 23-619, looked up)
chain: ELLDPCGYISPESPVVQLHSNFTAVCVLKEKCMDYFHVNANYIVWKTNHFTIPKEQYTIINRTASSVTFTDIASLNIQLTCNILTFGQLEQNVYGITIISGLPPEKPKNLSCIVNEGKKMRCEWDGGRETHLETNFTLKSEWATHKFADCKAKRDTPTSCTVDYSTVYFVNIEVWVEAENALGKVTSDHINFDPVYKVKPNPPHNLSVINSEELSSILKLTWTNPSIKSVIILKYNIQYRTKDASTWSQIPPEDTASTRSSFTVQDLKPFTEYVFRIRCMKEDGKGYWSDWSEEASGITYEDRPSKAPSFWYKIDPSHTQGYRTVQLVWKTLPPFEANGKILDYEVTLTRWKSHLQNYTVNATKLTVNLTNDRYLATLTVRNLVGKSDAAVLTIPACDFQATHPVMDLKAFPKDNMLWVEWTTPRESVKKYILEWCVLSDKAPCITDWQQEDGTVHRTYLRGNLAESKCYLITVTPVYADGPGSPESIKAYLKQAPPSKGPTVRTKKVGKNEAVLEWDQLPVDVQNGFIRNYTIFYRTIIGNETAVNVDSSHTEYTLSSLTSDTLYMVRMAAYTDEGGKDGPEFTFTTPKFAQGEIE
modifications: N-linked glycans (N21, N61, N135 seen in the structures)
notes: Secreted with a honeybee-melittin signal peptide; D5-D6 are not in the deposited model 8DPT; also called complete extracellular domains of gp130; D1-D6 domains of gp130; not shown: His8, N-terminal, cleaved

Further lines, the molecule ahead of its results:

B2: IL-11_(Δ10/W147A) (ligand, human)
chain: SPDPRAELDSTVLLTRSLLADTRQLAAQLRDKFPADGDHNLDSLPTLAMSAGALGALQLPGVLTRLRADLLSYLRHVQWLRRAGGSSLKTLEPELGTLQARLDRLLRRLQLLMSRLALPQPPPDPPAPPLAPPSSAAGGIRAAHAILGGLHLTLDWAVRGLLLLKTRL
notes: interleukin 11 (IL-11), human, IL-11Δ10 with W147A; numbers count on: the mature protein; also called IL-11 W147A; W147A mutant; not shown: His6, N-terminal, cleaved
Kd (IL-11Ralpha D1-D3): 10.4 nM
Kd (IL-11Rα_(D1-D3) [4]): 10 nM

B3: biotinylated IL-11Δ10-avi (ligand, human)
chain: SPDPRAELDSTVLLTRSLLADTRQLAAQLRDKFPADGDHNLDSLPTLAMSAGALGALQLPGVLTRLRADLLSYLRHVQWLRRAGGSSLKTLEPELGTLQARLDRLLRRLQLLMSRLALPQPPPDPPAPPLAPPSSAWGGIRAAHAILGGLHLTLDWAVRGLLLLKTRL
modifications: biotin on the C-terminal avitag
notes: interleukin 11, human, N-terminally truncated form IL-11Δ10; numbers count on: the mature protein; also called IL11d10; not shown: His6, N-terminal, cleaved; avitag, C-terminal, kept
Kd (IL-11Rα D1-D3): 78.5 nM and 77.1 nM and 77.8 nM
koff (IL-11Rα D1-D3): 0.0943 s⁻¹ and 0.125 s⁻¹
kon (IL-11Rα D1-D3): 1.2e+06 M⁻¹ s⁻¹ and 1.61e+06 M⁻¹ s⁻¹ and 1.41e+06 M⁻¹ s⁻¹

B4: biotinylated IL-11_(Δ10/Mutein)-avi (ligand, human)
chain: SPDPRAELDSTVLLTRSLLADTRQLAAQLRDKFPADGDHNLDSLPTLPAIDYALGALQLPGVLTRLRADLLSYLRHVQWLRRAGGSSLKTLEPELGTLQARLDRLLRRLQLLMSRLALPQPPPDPPAPPLAPPSSAAGGIRAAHAILGGLHLTLDWAVRGLLLLKTRL
modifications: biotin on the C-terminal avitag
notes: interleukin 11 (IL-11), human, IL-11Δ10 with W147A and 58-62 AMSAG changed to PAIDY; numbers count on: the mature protein; source: E. coli BL21(DE3), biotinylated, purified as IL-11Δ10; not shown: His6, N-terminal, cleaved; avitag, C-terminal, kept
koff (IL-11Rα_(D1-D3) [5]): 0.034 s⁻¹
